From patent US20250076311A1 (Chugai, published 2025)
Where a chain is given by its changes, count along the chain named. Blank lines part the entries; values can stand above or below the binder they belong to.

What was measured:
[1] = target: T1, cynomolgus monkey FcγRIIa2 extracellular domain, His-tagged (cynomolgus monkey); assay: SPR Biacore, KD(SG1)/KD(variant)
T1 construct: also called cyno FcγRIIa2; cynoFcgRIIa2; not shown: C-terminal His-tag
T1 chain: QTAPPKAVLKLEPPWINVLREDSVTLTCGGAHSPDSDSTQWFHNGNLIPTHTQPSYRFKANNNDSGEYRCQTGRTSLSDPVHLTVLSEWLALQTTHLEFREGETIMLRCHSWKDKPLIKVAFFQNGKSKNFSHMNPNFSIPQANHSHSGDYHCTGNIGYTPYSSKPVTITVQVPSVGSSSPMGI

[2] = target: T2, cynomolgus monkey FcγRIIa1 extracellular domain, His-tagged (cynomolgus monkey); assay: SPR Biacore, antibody captured, FcgR analyte
T2 construct: also called cyno FcγRIIa1; cynoFcgRIIa1; not shown: C-terminal His-tag
T2 chain: T1 chain with T95P, A121T, K127I, S128A, N130K, N135D, Q142R

[3] = target: T3, cynomolgus monkey FcγRIIa1 extracellular domain with C-terminal His-tag (cynomolgus monkey); assay: SPR (BIACORE), antibody captured, FcgR analyte
T3 construct: also called cyno FcgRIIa1; cynoFcγRIIa1; not shown: His-tag added to the C-terminus
T3 chain: T1 chain with T95P, A121T, K127I, S128A, N130K, N135D, Q142R

[4] = target: T4, cynomolgus monkey FcγRIIIaS extracellular domain with C-terminal His-tag (cynomolgus monkey, UniProt A3RFZ7 21-206 (rhesus entry)); assay: SPR (BIACORE), antibody captured, FcgR analyte
T4 construct: also called cyno FcgRIIIaS; cynoFcγRIIIaS; not shown: His-tag added to the C-terminus

[5] = target: T5, cynomolgus monkey FcγRIIa3 extracellular domain with C-terminal His-tag (cynomolgus monkey); assay: SPR (BIACORE), antibody captured, FcgR analyte
T5 construct: also called cyno FcgRIIa3; cynoFcγRIIa3; not shown: His-tag added to the C-terminus
T5 chain: T1 chain with K127I, N130K, H133P, Q142R

[6] = target: T3, cynomolgus monkey FcγRIIa1 …; assay: SPR (BIACORE); KD of SG1 / KD of variant
[7] = target: T4, cynomolgus monkey FcγRIIIaS …; assay: SPR (BIACORE); KD of SG1 / KD of variant
[8] = target: T6, cynomolgus monkey FcγRIIb extracellular domain with C-terminal His-tag (cynomolgus monkey); assay: SPR (BIACORE); KD of SG1 / KD of variant
T6 construct: also called cyno FcgRIIb; cynoFcγRIIb; not shown: His-tag added to the C-terminus
T6 chain: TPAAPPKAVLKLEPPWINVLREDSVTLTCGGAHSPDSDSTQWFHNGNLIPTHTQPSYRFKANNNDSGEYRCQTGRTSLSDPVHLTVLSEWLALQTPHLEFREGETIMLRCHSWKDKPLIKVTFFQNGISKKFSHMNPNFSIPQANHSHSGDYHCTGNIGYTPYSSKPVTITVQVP

[9] = target: T7, human FcγRIIaH extracellular domain with C-terminal His-tag (human, UniProt P12318 34-217); assay: SPR (BIACORE); KD of SG1 / KD of variant
T7 construct: also called human FcgRIIaH; FcγRIIa type H; not shown: His-tag added to the C-terminus
T7 sequence: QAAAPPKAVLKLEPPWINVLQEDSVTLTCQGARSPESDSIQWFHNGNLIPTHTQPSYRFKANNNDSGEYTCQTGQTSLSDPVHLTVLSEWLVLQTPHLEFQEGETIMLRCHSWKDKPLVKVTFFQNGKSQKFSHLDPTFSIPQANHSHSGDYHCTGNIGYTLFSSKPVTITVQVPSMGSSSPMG

[10] = target: T5, cynomolgus monkey FcγRIIa3 …; assay: SPR (BIACORE); KD of SG1 / KD of variant
[11] = target: T7, human FcγRIIaH extracellular domain …; assay: SPR (BIACORE), antibody captured, FcgR analyte
[12] = target: T8, cynomolgus monkey FcγRIIa3 extracellular domain, His-tagged (cynomolgus monkey); assay: SPR (BIACORE), antibody captured on chip, soluble FcgR as analyte, 25 C
T8 construct: also called cyno FcgRIIa3; cynoFcγRIIa3; not shown: His-tag added to the C-terminus
T8 chain: T1 chain with K127I, N130K, H133P, Q142R
Protocol: (§1) The kinetic analysis of interactions between these antibodies and FcγR was carried out using BIACORE® T200 or BIACORE® 4000 (GE Healthcare). HBS-EP+ (GE Healthcare) was used as the running buffer, and the measurement temperature was set to 25° C. […] After the measurement, the antibody captured on the chip was washed off by allowing reaction with 10 mM glycine-HCl, pH1.5 and 25 mM NaOH so that the chip was regenerated and used repeatedly. The sensorgrams obtained as measurement results were analyzed by the 1:1 Langmuir binding model using the BIACORE® Evaluation Software to calculate the binding rate constant ka (L/mol/s) and dissociation rate constant kd (1/s), and the dissociation constant KD (mol/L) was calculated from these values. […] Regarding such interactions, KD values were calculated using the following 1:1 binding model described in BIACORE® T100 Software Handbook BR1006-48 Edition AE.

[13] = target: T9, human FcγRIIb extracellular domain, His-tagged (human, UniProt P31994 43-217); assay: as above
T9 construct: also called human FcgRIIb; not shown: His-tag added to the C-terminus
T9 sequence: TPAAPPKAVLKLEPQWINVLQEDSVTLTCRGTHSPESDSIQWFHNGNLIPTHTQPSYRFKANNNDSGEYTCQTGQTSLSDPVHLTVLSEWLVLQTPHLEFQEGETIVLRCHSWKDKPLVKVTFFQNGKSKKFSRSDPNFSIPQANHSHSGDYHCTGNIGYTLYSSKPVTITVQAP
Protocol: as §1

[14] = target: T10, cynomolgus monkey FcγRIIa1 extracellular domain with C-terminal His-tag (cynomolgus monkey); assay: SPR (Biacore), KD of SG1 / KD of variant
T10 construct: also called cyno FcgRIIa1; cynoFcγRIIa1
T10 chain: T1 chain with T95P, A121T, K127I, S128A, N130K, N135D, Q142R

[15] = target: T11, cynomolgus monkey FcγRIIa3 extracellular domain with C-terminal His-tag (cynomolgus monkey); assay: SPR (Biacore), antibody captured, FcgR analyte
T11 construct: also called cyno FcgRIIa3; cynoFcγRIIa3
T11 chain: T1 chain with K127I, N130K, H133P, Q142R

[16] = target: T12, cynomolgus monkey FcγRIIa2 extracellular domain with C-terminal His-tag (cynomolgus monkey); assay: SPR (Biacore), KD of SG1 / KD of variant
T12 construct: also called cyno FcgRIIa2; cynoFcγRIIa2
T12 chain: T1 chain

[17] = target: T13, human FcγRIIaH extracellular domain with C-terminal His-tag (human, UniProt P12318 34-217); assay: SPR (Biacore), antibody captured, FcgR analyte
T13 construct: also called human FcgRIIaH; FcγRIIa (type H)
T13 sequence: T7 sequence

[18] = target: T14, human FcγRIIaR extracellular domain with C-terminal His-tag (human, UniProt P12318 34-217); assay: SPR (Biacore), KD of SG1 / KD of variant
T14 construct: also called human FcgRIIaR; FcγRIIa (type R)
T14 chain: T7 sequence with H134R

[19] = target: T15, cynomolgus monkey FcγRIIb extracellular domain with C-terminal His-tag (cynomolgus monkey); assay: SPR (Biacore), KD of SG1 / KD of variant
T15 construct: also called cyno FcgRIIb; cynoFcγRIIb
T15 chain: T6 chain

T4 sequence (A3RFZ7 21-206): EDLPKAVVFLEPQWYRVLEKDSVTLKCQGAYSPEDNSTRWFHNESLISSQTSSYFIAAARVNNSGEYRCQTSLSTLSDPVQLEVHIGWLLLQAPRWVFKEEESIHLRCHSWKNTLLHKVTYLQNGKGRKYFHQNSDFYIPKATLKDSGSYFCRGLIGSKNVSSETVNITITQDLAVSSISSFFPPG

B1: M103205H795-MY011/M103202L889-SK1 (antibody, human IgG1, kappa, name in EU numbering)
heavy: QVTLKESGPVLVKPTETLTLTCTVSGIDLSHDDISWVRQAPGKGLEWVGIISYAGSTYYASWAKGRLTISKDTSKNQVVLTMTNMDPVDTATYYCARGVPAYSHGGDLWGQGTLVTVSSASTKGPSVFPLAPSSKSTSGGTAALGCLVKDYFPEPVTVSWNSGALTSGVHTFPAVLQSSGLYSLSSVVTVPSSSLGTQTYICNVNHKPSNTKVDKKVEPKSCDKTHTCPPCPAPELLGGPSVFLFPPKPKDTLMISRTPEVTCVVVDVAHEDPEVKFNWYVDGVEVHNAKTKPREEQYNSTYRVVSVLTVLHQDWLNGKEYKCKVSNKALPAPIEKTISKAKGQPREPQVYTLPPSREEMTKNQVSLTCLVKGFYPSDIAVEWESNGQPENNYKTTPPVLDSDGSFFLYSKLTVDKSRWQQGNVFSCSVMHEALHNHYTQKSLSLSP
light: DIVMTQSPATLSLSPGERATLSCTSSQSVYHANWLSWFQQKPGQPPKLLIYWASTLAYGVPSRFSGSGSGTDFTLTISSLQPEDAATYYCAGGYGGGRYAFGQGTKVEIKRTVAAPSVFIFPPSDEQLKSGTASVVCLLNNFYPREAKVQWKVDNALQSGNSQESVTEQDSKDSTYSLSSTLTLSKADYEKHKVYACEVTHQGLSSPVTKSFNRGEC
notes: Substitution introduced into M103205H795-SG1; EU numbering
KD fold (SG1 = 1) [1]: 1.6 fold
Kd [2]: 2300 nM

B2: M103205H795-MY073/M103202L889-SK1 (antibody, human IgG1, kappa, name in EU numbering)
heavy: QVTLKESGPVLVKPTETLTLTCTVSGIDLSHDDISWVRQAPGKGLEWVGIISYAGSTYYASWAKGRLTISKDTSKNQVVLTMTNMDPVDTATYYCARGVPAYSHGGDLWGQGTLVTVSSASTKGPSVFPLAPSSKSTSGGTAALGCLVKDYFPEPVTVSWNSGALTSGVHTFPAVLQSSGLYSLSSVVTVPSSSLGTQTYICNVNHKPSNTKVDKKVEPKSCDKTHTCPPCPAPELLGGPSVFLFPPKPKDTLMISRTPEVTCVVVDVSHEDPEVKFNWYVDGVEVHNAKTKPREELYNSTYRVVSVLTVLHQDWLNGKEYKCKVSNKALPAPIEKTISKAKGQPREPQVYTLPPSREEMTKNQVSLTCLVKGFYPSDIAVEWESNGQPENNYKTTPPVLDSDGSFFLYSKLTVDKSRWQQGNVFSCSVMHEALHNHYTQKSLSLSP
light: B1 light
notes: as for B1
KD fold (SG1 = 1) [1]: 3.9 fold

B3: M103205H795-MY048/M103202L889-SK1 (antibody, human IgG1, kappa, name in EU numbering)
heavy: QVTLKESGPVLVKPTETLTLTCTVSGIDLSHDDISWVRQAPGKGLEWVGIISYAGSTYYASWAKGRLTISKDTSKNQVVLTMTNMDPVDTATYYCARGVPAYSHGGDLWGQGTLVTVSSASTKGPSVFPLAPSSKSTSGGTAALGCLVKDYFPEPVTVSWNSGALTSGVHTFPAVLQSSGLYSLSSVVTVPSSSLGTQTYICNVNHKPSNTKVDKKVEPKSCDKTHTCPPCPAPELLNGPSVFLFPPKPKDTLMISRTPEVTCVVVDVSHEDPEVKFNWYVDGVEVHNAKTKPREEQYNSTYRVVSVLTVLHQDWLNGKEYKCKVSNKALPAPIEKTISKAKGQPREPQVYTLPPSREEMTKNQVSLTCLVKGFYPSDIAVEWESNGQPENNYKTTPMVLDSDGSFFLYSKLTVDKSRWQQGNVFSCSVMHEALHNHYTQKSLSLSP
light: B1 light
notes: Fc variant of MS1032LO06-SG1; positions in EU numbering
Kd [3]: 1400 nM
Kd [4]: 5400 nM
Kd [5]: 7000 nM
KD fold (SG1 = 1) [6]: 2.5 fold
KD fold (SG1 = 1) [7]: 0.07 fold

B4: M103205H795-MY050/M103202L889-SK1 (antibody, human IgG1, kappa, name in EU numbering)
heavy: QVTLKESGPVLVKPTETLTLTCTVSGIDLSHDDISWVRQAPGKGLEWVGIISYAGSTYYASWAKGRLTISKDTSKNQVVLTMTNMDPVDTATYYCARGVPAYSHGGDLWGQGTLVTVSSASTKGPSVFPLAPSSKSTSGGTAALGCLVKDYFPEPVTVSWNSGALTSGVHTFPAVLQSSGLYSLSSVVTVPSSSLGTQTYICNVNHKPSNTKVDKKVEPKSCDKTHTCPPCPAPELLNGPSVFLFPPKPKDTLMISRTPEVTCVVVDVAEEDPEVKFNWYVDGVEVHNAKTKPREEQYNSTYRVVSVLTVLHQDWLNGKEYKCKVSNKALPAPIEKTISKAKGQPREPQVYTLPPSREEMTKNQVSLTCLVKGFYPSDIAVEWESNGQPENNYKTTPPVLDSDGSFFLYSKLTVDKSRWQQGNVFSCSVMHEALHNHYTQKSLSLSP
light: B1 light
notes: as for B3
Kd [4]: 1700 nM
KD fold (SG1 = 1) [8]: 1.3 fold
KD fold (SG1 = 1) [9]: 0.3 fold
KD fold (SG1 = 1) [7]: 0.21 fold
KD fold (SG1 = 1) [10]: 0.5 fold

B5: M103205H795-MY052/M103202L889-SK1 (antibody, human IgG1, kappa, name in EU numbering)
heavy: B4 heavy with A269S, P398M
light: B1 light
notes: as for B3
Kd [4]: 1500 nM
KD fold (SG1 = 1) [6]: 2.5 fold
KD fold (SG1 = 1) [7]: 0.24 fold

B6: M103205H795-MY141/M103202L889-SK1 (antibody, human IgG1, kappa, name in EU numbering)
heavy: B4 heavy with E270H, P398M
light: B1 light
notes: as for B3
Kd [11]: 1300 nM
Kd [3]: 2200 nM
Kd [4]: 4700 nM
KD fold (SG1 = 1) [9]: 0.6 fold
KD fold (SG1 = 1) [7]: 0.08 fold
KD fold (SG1 = 1) [10]: 0.5 fold

B7: M103205H795-MY147/M103202L889-SK1 (antibody, human IgG1, kappa, name in EU numbering)
heavy: B4 heavy with L237W, A269S, P398M
light: B1 light
notes: as for B3
Kd [4]: 5500 nM
KD fold (SG1 = 1) [8]: 1.9 fold
KD fold (SG1 = 1) [7]: 0.07 fold

Continued, values first:

Kd [12]: 43000 nM
Kd [13]: 2700 nM
B8: M103205H795-MY265/M103202L889-SK1 (antibody, human IgG1, kappa, name in EU numbering)
heavy: B4 heavy with N238T, A269S, E270D, A332K
light: B1 light
notes: also called MS1032LO06-MY265

KD fold (SG1 = 1) [14]: 1.5 fold
B9: M103205H795-MY446/M103202L889-SK1 (antibody, human IgG1, kappa)
heavy: B4 heavy with P234H, N238T, A269S, E270D, A332K
light: B1 light
notes: Substitutions in EU numbering on SG1

Kd [15]: 1500 nM
KD fold (SG1 = 1) [16]: 5.6 fold
B10: M103205H795-MY447/M103202L889-SK1 (antibody, human IgG1, kappa)
heavy: B4 heavy with P234I, N238T, A269S, E270D, A332K
light: B1 light
notes: as for B9

Kd [15]: 2500 nM
Kd [17]: 900 nM
KD fold (SG1 = 1) [18]: 5.2 fold
KD fold (SG1 = 1) [16]: 5.1 fold
KD fold (SG1 = 1) [19]: 6.7 fold
B11: M103205H795-MY475/M103202L889-SK1 (antibody)
heavy: B4 heavy with A233W, N238T, A269S, E270D, A332K
light: B1 light
notes: as for B9
